Assay results from US20220226495A1.
Like-named read-outs stand apart in the source and are kept apart here.

B1: Binding Protein 2 (protein)
heavy 1: RAHLVQSGTAMKKPGASVRVSCQTSGYTFTAHILFWFRQAPGRGLEWVGWIKPQYGAVNFGGGFRDRVTLTRDVYREIAYMDIRGLKPDDTAVYYCARDRSYGDSSWALDAWGQGTTVVVSAASTKGPSVFPLAPSSKSTSGGTAALGCLVKDYFPEPVTVSWNSGALTSGVHTFPAVLQSSGLYSLSSVVTVPSSSLGTQTYICNVNHKPSNTKVDKKVEPKSCDKTHTCPPCPAPELLGGPSVFLFPPKPKDTLMISRTPEVTCVVVDVSHEDPEVKFNWYVDGVEVHNAKTKPREEQYNSTYRVVSVLTVLHQDWLNGKEYKCKVSNKALPAPIEKTISKAKGQPREPQVCTLPPSRDELTKNQVSLSCAVKGFYPSDIAVEWESNGQPENNYKTTPPVLDSDGSFFLVSKLTVDKSRWQQGNVFSCSVLHEALHSHYTQKSLSLSPG
light 1: YIHVTQSPSSLSVSIGDRVTINCQTSQGVGSDLHWYQHKPGRAPKLLIHHTSSVEDGVPSRFSGSGFHTSFNLTISDLQADDIATYYCQVLQFFGRGSRLHIKRTVAAPSVFIFPPSDEQLKSGTASVVCLLNNFYPREAKVQWKVDNALQSGNSQESVTEQDSKDSTYSLSSTLTLSKADYEKHKVYACEVTHQGLSSPVTKSFNRGEC
heavy 2: EVRLVESGGGLVKPGGSLRLSCSASGFDFDNAWMTWVRQPPGKGLEWVGRITGPGEGWSVDYAESVKGRFTISRDNTKNTLYLEMNNVRTEDTGYYFCARTGKYYDFWSGYPPGEEYFQDWGQGTLVIVSSDKTHTQVHLTQSGPEVRKPGTSVKVSCKAPGNTLKTYDLHWVRSVPGQGLQWMGWISHEGDKKVIVERFKAKVTIDWDRSTNTAYLQLSGLTSGDTAVYYCAKGSKHRLRDYALYDDDGALNWAVDVDYLSNLEFWGQGTAVTVSSDKTHTASTKGPSVFPLAPSSKSTSGGTAALGCLVKDYFPEPVTVSWNSGALTSGVHTFPAVLQSSGLYSLSSVVTVPSSSLGTQTYICNVNHKPSNTKVDKKVEPKSCDKTHTCPPCPAPELLGGPSVFLFPPKPKDTLMISRTPEVTCVVVDVSHEDPEVKFNWYVDGVEVHNAKTKPREEQYNSTYRVVSVLTVLHQDWLNGKEYKCKVSNKALPAPIEKTISKAKGQPREPQVYTLPPCRDELTKNQVSLWCLVKGFYPSDIAVEWESNGQPENNYKTTPPVLDSDGSFFLYSKLTVDKSRWQQGNVFSCSVLHEALHSHYTQKSLSLSPG
light 2: DFVLTQSPHSLSVTPGESASISCKSSHSLIHGDRNNYLAWYVQKPGRSPQLLIYLASSRASGVPDRFSGSGSDKDFTLKISRVETEDVGTYYCMQGRESPWTFGQGTKVDIKDKTHTASELTQDPAVSVALKQTVTITCRGDSLRSHYASWYQKKPGQAPVLLFYGKNNRPSGIPDRFSGSASGNRASLTITGAQAEDEADYYCSSRDKSGSRLSVFGGGTKLTVLDKTHTRTVAAPSVFIFPPSDEQLKSGTASVVCLLNNFYPREAKVQWKVDNALQSGNSQESVTEQDSKDSTYSLSSTLTLSKADYEKHKVYACEVTHQGLSSPVTKSFNRGEC
B2: Binding Protein 3 (protein)
heavy 1: B1 heavy 1
light 1: B1 light 1
heavy 2: QVHLTQSGPEVRKPGTSVKVSCKAPGNTLKTYDLHWVRSVPGQGLQWMGWISHEGDKKVIVERFKAKVTIDWDRSTNTAYLQLSGLTSGDTAVYYCAKGSKHRLRDYALYDDDGALNWAVDVDYLSNLEFWGQGTAVTVSSDKTHTEVRLVESGGGLVKPGGSLRLSCSASGFDFDNAWMTWVRQPPGKGLEWVGRITGPGEGWSVDYAESVKGRFTISRDNTKNTLYLEMNNVRTEDTGYYFCARTGKYYDFWSGYPPGEEYFQDWGQGTLVIVSSDKTHTASTKGPSVFPLAPSSKSTSGGTAALGCLVKDYFPEPVTVSWNSGALTSGVHTFPAVLQSSGLYSLSSVVTVPSSSLGTQTYICNVNHKPSNTKVDKKVEPKSCDKTHTCPPCPAPELLGGPSVFLFPPKPKDTLMISRTPEVTCVVVDVSHEDPEVKFNWYVDGVEVHNAKTKPREEQYNSTYRVVSVLTVLHQDWLNGKEYKCKVSNKALPAPIEKTISKAKGQPREPQVYTLPPCRDELTKNQVSLWCLVKGFYPSDIAVEWESNGQPENNYKTTPPVLDSDGSFFLYSKLTVDKSRWQQGNVFSCSVLHEALHSHYTQKSLSLSPG
light 2: ASELTQDPAVSVALKQTVTITCRGDSLRSHYASWYQKKPGQAPVLLFYGKNNRPSGIPDRFSGSASGNRASLTITGAQAEDEADYYCSSRDKSGSRLSVFGGGTKLTVLDKTHTDFVLTQSPHSLSVTPGESASISCKSSHSLIHGDRNNYLAWYVQKPGRSPQLLIYLASSRASGVPDRFSGSGSDKDFTLKISRVETEDVGTYYCMQGRESPWTFGQGTKVDIKDKTHTRTVAAPSVFIFPPSDEQLKSGTASVVCLLNNFYPREAKVQWKVDNALQSGNSQESVTEQDSKDSTYSLSSTLTLSKADYEKHKVYACEVTHQGLSSPVTKSFNRGEC
B3: V1/V2 directed Ab “b” (antibody, V domains shown)
VH: QVQLVESGGGVVQPGTSLRLSCAASQFRFDGYGMHWVRQAPGKGLEWVASISHDGIKKYHAEKVWGRFTISRDNSKNTLYLQMNSLRPEDTALYYCAKDLREDECEEWWSDYYDFGKQLPCAKSRGGLVGIADNWGQGTMVTVSS
VL: QSVLTQPPSVSAAPGQKVTISCSGNTSNIGNNFVSWYQQRPGRAPQLLIYETDKRPSGIPDRFSASKSGTSGTLAITGLQTGDEADYYCATWAASLSSARVFGTGTKVIVL
B4: V1/V2 directed Ab “a” (antibody, V domains shown)
VH: QVHLTQSGPEVRKPGTSVKVSCKAPGNTLKTYDLHWVRSVPGQGLQWMGWISHEGDKKVIVERFKAKVTIDWDRSTNTAYLQLSGLTSGDTAVYYCAKGSKHRLRDYALYDDDGALNWAVDVDYLSNLEFWGQGTAVTVSS
VL: DFVLTQSPHSLSVTPGESASISCKSSHSLIHGDRNNYLAWYVQKPGRSPQLLIYLASSRASGVPDRFSGSGSDKDFTLKISRVETEDVGTYYCMQGRESPWTFGQGTKVDIK

Key:
[1] = target: T1, MPER binding peptide (Acetyl-[…]-Ttds-Lys-(Biotin)-NH2) (HIV-1)
[2] = target: HIV-1 Env of 20 pseudotyped viruses representing 10 different HIV-1 clades; assay: cell-based or functional assay
[3] = target: T1, MPER binding peptide …; remark: listed apart in the source
[4] = target: HIV-1 Env of 20 pseudotyped viruses representing 10 different HIV-1 clades; assay: cell-based or functional assay; remark: listed apart in the source

Binder	Ka [1] [M⁻¹]	Kd [1] [nM]	koff [1] [s⁻¹]	kon [1] [M⁻¹ s⁻¹]	% VS Neutralized IC80 <1 µg/mL [2] [%]	% VS Neutralized IC80 <50 µg/mL [2] [%]	Geometric Mean [2] [µg/mL]	Median IC80 [2] [µg/mL]	Total VS Neutralized IC80 <1 µg/mL (viruses of 20) [2]	Total VS Neutralized IC80 <50 µg/mL (viruses of 20) [2]	fold higher affinity than the MPER antibody [3] [fold]	% VS Neutralized IC80 <1 µg/mL [4] [%]	% VS Neutralized IC80 <50 µg/mL [4] [%]	Geometric Mean [4] [µg/mL]	Median IC80 [4] [µg/mL]	Total VS Neutralized IC80 <1 µg/mL (viruses of 20) [4]	Total VS Neutralized IC80 <50 µg/mL (viruses of 20) [4]
B1	1.65e+08	6.05	0.000697	115000	65	90	0.222	0.375	13	18	3.1	–	–	–	–	–	–
B2	6e+07	16.7	0.000779	46700	60	90	0.287	0.469	12	18	–	–	–	–	–	–	–
B3	–	–	–	–	–	–	–	–	–	–	–	45	45	0.039	0.051	9	9
B4	–	–	–	–	45	55	0.094	0.06	9	11	–	–	–	–	–	–	–
